Data taken from the DeepSol protein solubility set.

Assay: soluble on expression in E. coli; label from the status in PepcDB or PDB records

Soluble on expression in E. coli, not soluble:
MGSDKIHHHHHHMEALRRRIETQVMSLTGLALGQLDLESPKGDPGLFGPHSISWRVHGDFPSMLVGGISALMLQLLHPLALAGVWDHSNFREDLLGRLRRTSQFISGTTFGATGDAEWLIDKVRTIHLQVTGTAPDGRPYAASDPDLLTWVHVAEVSRFLAAHLRYRNPRLPRAEQDAYYNEIALIAERLGARDVPRSCQQVEDYLQHIRPQLHCDARSHEVIRILLDAPAPSRLAQPVGKLMLHAGIDLLPGWAQALLGLQHGPLQQRLIRLGLRRTAPVLRWAMRDGSAHRAKRRMGID
MGSDKIHHHHHHMDTAPLLPSSIRDQFTREVVYLNTATCGLPPRVAHEATLAVERDRARGRLTLDIAHQAVERSRAAFARLVGVPVSRVAVGSQASFFVGLVAASLPPGATVVVAEEDFTSVTYPFLAATGRGVTVRPVPLDRIIDAVDTSVDLVSVSVVQSADGRIVDVPALLDAAATHGARVLLDTTQSSGWLPIPADRVDYLVCSAYKWLLGPRGACFFAGTDDALAELTPIAANWFAAEDITSAFYGTELRLASDARRFDLSPAWASCVGLAPALELLADLGEAALGAHNVALANRFCAALGLPPTDSAIVSVAVDAKAQQVLADAGIVAAMRAGRMRCAFHLSTDAADVDRAVEEIGPYLRDANLEEAVRVPGDR
MSPRNDSTRKHRKSRSIKDDQHYPPVSFVGVESVGIIECPGSNHLSLASIPTTEFKIPDELALWVRGRIDNVAPKHPCDRRGQQPLAKKEISMNSSRSNSSFPARSPAIMTLMGGVPEAEKEYNVGKDGLLKVSKMMEGGKRYEVSANDRFTVFQQSAGQTCLFTFKA
MSSTLRFHVLGRGAALPRAVAPYFVLRTDNWDDFGHRVQFHLILIVSGAPEKRIGSLKVLQRTSDKGEAMMVATDTELPSKFVELDDTFVSLGQDDDFYKKLHEALGDRAGEVLDALRDIAWRPAFASDFEPTPAFRNAMMRENGAQRARRFGRAWALGEQITERPAFDYVGTIEGADIKVEGEFDFSATDPVPGRIVGLIGRNAVGKTRYLASLGSDLAQISRRSAEALEAREARFPGGRPLFTRIIAISYSAFDRFKRPPMDSSSSYVYCGIRNDRGGLSRSALIDRYRLNQVRIRERGEQRSWMRHMKTILGDQGAQLTASLEEEIRSDSTDDSALSSLSSGQSILAHFVTALLAWIQPNSLVLFDEPETHLHPNAVASLFLVLSQVLQEFDSYAVIATHSPVVIQEIPAKRVLVFRREGNVTIAEPLLLESFGESVTELTRHVFETGEVESLYKRTLRELAAEDTVEDVLARFELGLSLSAQAYLLAQYSKKAGGRTLEHHHHHH
MQSATDVAEYCKYDGFDGLKRAISLSDEEILNELDIAHLRGRGGAAYPLGKKWRHLYHAKGTTKYIVCNADEGEPGTFKDKVLLSEDPLSVIEGMIIAGYLFSAKAGYIYMRGEYRRIQKTFQEALDNARQAGFLGENILGIEGFNYDITIISGAGAYICGENSALLNSIEGKTGRPRVKPPHLADVGLYLQPTLVNNVESFASVPVILREGGQAFLEMGTADGGGTKLICLSGHIKNRGLYEVNLGTPLEEIIYGEQYGGGSATGRALKFIHFGGQSGPIGAVATLRDCLYSYEDLWAHDLSVGSGAIVVMDDSVNVVDYLVHVAAFFAHESCGKCTPCRLGTTRILELLSKFNRNEATASDLPRLEKMLTHVTRLSACGLGQSVANPMKSALALFPEEFETTAETEIYATSKGGWLEHHHHHH
MGSDKIHHHHHHMAKAPKMAFVCDDCGLDYPRWQGQCRCGAWNSLVEMKLSASKSSTSRSSVLGYAGAVGGGSKKLSEVESEDAEKRLTEIGELDRVLSGGLTTGSVNIISGDPGAGKTTLLSDLVARMSQSMASLYCTAEESLSQFKNRVNRLKLNYNEDNLFLLSETSVEAIIEELEAKQIKFAVIDSIQAVVTDAANGSPGSPSQVKTAAQAFTQYCKKNNVTMFIIAHVNKNNEIAGPQTLVHIVDSLLHIDTNDGQIRTLRANKNRFGDVDTVGIFRMSERGMISVDNPSEIFLSGSTTESPGSTITCIRKGNRNLLLEIQCLTTETESEFPQRVCVGLNMNRIKMLTGILRKHTKTKIFHDTFFNIVGGLKIDESETCIDLALVTALLSSLNDFVVPRTTCIMGELSLNGDVRPIDSGVPRVKEAAQHGFTEIFIPFRNYHKTMEGLGAKIIPVKTIHELLELIN
MIDLNGQLHDVQATETLGQALAAARPVSAVVQLHGDLGAGKSTLARALLRALGVAGPIRSPTYTLVERYPLSTGDEAWHLDLYRIGHAGELDFLGLDEGSASLWLVEWPERGAGVLPPVDLDVELAVAGEGRSVRLLGRSAIGHAWMDRLSRQPQLQVLFAASREELEHHHHHH
MSTMSTPAAEQRKLVEQLMGRDFSFRHNRYSHQKRDLGLHDPKICKSYLVGECPYDLFQGTKQSLGKCPQMHLTKHKIQYEREVKQGKTFPEFEREYLAILSRFVNECNGQISVALQNLKHTAEERMKIQQVTEELDVLDVRIGLMGQEIDSLIRADEVSMGMLQSVKLQELISKRKEVAKRVRNITENVGQSAQQKLQVCEVCGAYLSRLDTDRRLADHFLGKIHLGYVKMREDYDRLMKNNRTTNASKTATTLPGRRFV
PYPIDLVSVVIPVYNEEASLPELLRRTEAACLELGRAFEIVLVDDGSRDRSAELLQAAAERDGSAVVAVILNRNYGQHAAILAGFEQSRGDLVITLDADLQNPPEEIPRLVERAAQGYDVVGSIRAERQDSAWRRWPSRLVNLAVQRSTGVAMHDYGCMLRAYRRSIVEAMLACRERSTFIPILANGFARHTCEIRVAHAERAHGESKYSAMRLLNLMFDLVTCMTTTPLR
MSLYPLVLDLAATGVPVAVTCRELGFTKQGFYKWCAHPVSARDWDEAHLINAAYDVHTDDPEFGHRFIADELHAAGLQTSERRVWRLCSQQQLFSHTIKRARKHGKKPGPPVCDDLVERDFTAKAINELWLTDVTEHHTSEGKLYMCAVKDVFSNRIVGYAIDSRMKSRLAVAAIDDAVARRGGSGMIAGCVVHSDRGSQFRSRKFQQALRHYGLVGSMGRVGAAGDNAAMESFFAVLQKNVLDRGRWDTRARLRTAIVHWVERTYHRKRRQRRLGKLTPVEYELVHQKAVALAAEGHHHHHH
MNQLLKTLRDFGLSSYEASAYVALVSSGETTAREVSRKAGIPRTKVYEVLNRLVEKGFAEVQPGSPAIFRAIEPAKIAARMQRDFNERLGKMLKAFEELKMDEKSESKLVWISRGRWAVENRLREFLRENDKVMVFCITENFASVLSEVRGEHRVLLYQKFRVPENIREFRVLDLGRIKKAKDGFVARFAEIIEGTEAGKPEILIISEGSSILALSHGEEYLALSIHLPLIVALQKRMFDTLYESYC
MERPGSGLAGVVVGCDDGRVEKLGPQAGFTAVACISWDNRLRLPLAGSLGLVRVDGVDATSVLAGLVLRLGAAGRPVLLDSLTIGGFNIVSPPGVERLTGSPVLAVYNYRPSLERLESGLRSSRLPLAGVRARVLSLVEEAAEASTPHGPVYLVAWGLEASEARRLVLETQVYGRKPEPVRIAHYTASEASEALRRV
PVNGALDQYSARAANILAGNLDNHPLLEITALDFRMKANSDVLIAVTGAPLTLTVGGRPCSQWEPVSVRAGESVSIRGIHRGLRAYLAIHGSIEAGTLLGSAAPDTVVGFGLQLQEGTTLLSRRSVSPVRQPYFDLPLFRLGLERPSMGSDLSVDVTDGPDVAEFGESGELLFTSEYVVSGRSNHIGLRLGGELPERTSSDEVLSRGVPVGAVEVPSREELLVLHRGRGVTAGYPVLAVVTSTGLDVLAQARPGDKVRFRKTT
MYPQQTSAAVGARKMRVVGVVEETHDARSILVEPHPEHIDAFDYRPGQFLTVRVPDVGSGTARCYSLSSSPHVDSTMKFTVKRVAGGHGSNWLCDEIALGDELEVLPPAGTFTVRSLDQSVVLVAGGSGITPVIAIAKSILHAGTGTVLLVYANRDERSVIFGEQLRELGERFGSRFTVIHVLESVQGYLTAPAMSNLIRPFTDRAVYICGPEPLMKLVKAVCSAEGIAPSQVMTERFVSLSTDPFRNPVEDKPSTSDTGVEVSAQDEAAAGDCTVHVSLDGTERTVAWPRSKRLLDALLDAGVEAPFSCREGACSACVCSLTEGEVRLVRNEVLEADDLADGYILACQAEVVTDQISIKY
MGHHHHHHSHVLLVTANVGSLFDDPENLQKNWLREFYQVVHTHKPHFMALHCQEFGGKNYEASMSHVDKFVKELLSSDAMKEYNRARVYLDENYKSQEHFTALGSFYFLHESLKNIYQFDFKAKKYRKVAGKEIYSDTLESTPMLEKEKFPQDYFPECKWSRKGFIRTRWCIADCAFDLVNIHLFHDASNLVAWETSPSVYSGIRHKALGYVLDRIIDQRFEKVSYFVFGDFNFRLDSKSVVETLCTKATMQTVRAADTNEVVKLIFRESDNDRKVMLQLEKKLFDYFNQEVFRDNNGTALLEFDKELSVFKDRLYELDISFPPSYPYSEDARQGEQYMNTRCPAWCDRILMSPSAKELVLRSESEEKVVTYDHIGPNVCMGDHKPVFLAFRIMPG

Soluble on expression in E. coli, soluble:
MRGSHHHHHHGSPGLQEFMAATGANAEKAESHNDCPVRLLNPNIAKMKEDILYHFNLTTSRHNFPALFGDVKFVCVGGSPSRMKAFIRCVGAELGLDCPGRDYPNICAGTDRYAMYKVGPVLSVSHGMGIPSISIMLHELIKLLYYARCSNVTIIRIGTSGGIGLEPGTVVITEQAVDTCFKAEFEQIVLGKRVIRKTDLNKKLVQELLLCSAELSEFTTVVGNTMCTLDFYEGQGRLDGALCSYTEKDKQAYLEAAYAAGVRNIEMESSVFAAMCSACGLQAAVVCVTLLNRLEGDQISSPRNVLSEYQQRPQRLVSYFIKKKLSKA
GPGSMPERCIGITTVQVGHIVGRGGSTLKGIQERTGATLCIVENGLQVKITADDAAKVAAAEAEVHKIVASQQNPDYEGPCGARLRKEAVELGQKRSKLFEEATRMREAGDHEGANKLVAMAKKAGEDMKARHREAALAIAKHNNEEKGKGPNYFDMHGLHLEEAMEMLKVRMSKLEEKPVGSTTAFEVIPGAGHHSAPGTQKLKRATLEYVQWKGYPCEEVNAGAFLVKVPGLGEGVLSKPEDGDKVPTKPKESATGVANKPKASGSAAASKSKAQSCCACM
MRAVVLKGFGGLEMLEERDLPVPEPGPGEVLVRNLAVAVNPVDAKIRAAGRWAGVEPPFVLGYDAAGVVAKVGPGVKDLKEGDEVYYTPEIFGNPHGTYAEYTPVPAGIVAKKPKNLSFAEAAAIPLAGGTAWKAVVRRLAVRPGETVLVMGGAGGVGSFAVQFAKAAGAYVIATASAENLPVLKELGADLALDYRGPWAEEVLKATEGQGVDAAFETAGESLVERVIPVVRPFGRIATILPPQGNLSGLYTKNQTLYGVFLTRERKRLLEMRPLFERGLARPLIAEVLPFSLENLRKAHARMDSGHGRGKIVLTFQA
MSLEHWNKTFCLEVKGDYACFTRPEMKVERVSYDVITPSAARGIFEAIFWKPAIRWRIRKIEVLNPIKWISVRRNEVGQTASERSDGIFIETARQQRAGLFLRDVAYRLHAELEFVPPSERPDAKRPVPESLQDGRETSELRKDENPGKYYAIFERRARKGQCFNQPYLGCREFSCEFRLVDDLANEPPPISETRNLGFMLYDLDFQKNLKEPPPAFFPACLEKGVIKVPDWESEEVRKEGHHHHHH
